Data reported in article PMC13429012 (Structure (London, England : 1993), 2016).

Experiments:
[1] = biological target: Rvb2(E166K) (Saccharomyces cerevisiae, UniProt Q12464 1-471, E166K); assay: SEC
[2] = biological target: Rvb2 (Saccharomyces cerevisiae, UniProt Q12464 1-471); assay: SEC
Sequence of Rvb2 (Q12464 whole entry): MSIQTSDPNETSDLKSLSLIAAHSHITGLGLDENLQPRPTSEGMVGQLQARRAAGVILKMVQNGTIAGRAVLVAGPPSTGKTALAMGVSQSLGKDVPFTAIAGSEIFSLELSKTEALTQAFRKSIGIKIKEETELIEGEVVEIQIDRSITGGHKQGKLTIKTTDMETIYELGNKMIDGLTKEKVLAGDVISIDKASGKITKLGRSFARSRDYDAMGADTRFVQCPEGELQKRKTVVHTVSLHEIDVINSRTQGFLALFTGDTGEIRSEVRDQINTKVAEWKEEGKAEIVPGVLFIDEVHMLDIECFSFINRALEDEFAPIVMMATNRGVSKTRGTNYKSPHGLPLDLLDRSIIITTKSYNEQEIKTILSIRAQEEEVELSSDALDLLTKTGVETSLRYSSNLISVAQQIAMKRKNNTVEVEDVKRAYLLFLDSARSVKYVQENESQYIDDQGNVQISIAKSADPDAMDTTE

Sequence of Rvb2(E166K) (Q12464 whole entry E166K): as the sequence (Q12464 whole entry) above, with E166K counted along it

Row | Binder | binding result [1] | binding result [2]
1 | Rvb1 (natural protein, Saccharomyces cerevisiae, UniProt Q03940 1-463, looked up) MVAISEVKENPGVNSSNSGAVTRTAAHTHIKGLGLDESGVAKRVEGGFVGQIEAREACGVIVDLIKAKKMSGRAILLAGGPSTGKTALALAISQELGPKVPFCPLVGSELYSVEVKKTETLMENFRRAIGLRIKETKEVYEGEVTELTPEDAENPLGGYGKTISHVIVGLKSAKGTKTLRLDPTIYESIQREKVSIGDVIYIEANTGAVKRVGRSDAYATEFDLETEEYVPLPKGEVHKKKEIVQDVTLHDLDVANARPQGGQDVISMMGQLLKPKKTEITEKLRQEVNKVVAKYIDQGVAELIPGVLFIDEVNMLDIEIFTYLNKALESNIAPVVVLASNRGMTTVRGTEDVISPHGVPPDLIDRLLIVRTLPYDKDEIRTIIERRATVERLQVESSALDLLATMGTETSLRYALQLLAPCGILAQTSNRKEIVVNDVNEAKLLFLDAKRSTKILETSANYL | binds | –
2 | Rvb1(R180E) (natural protein, Saccharomyces cerevisiae, UniProt Q03940 1-463, looked up) MVAISEVKENPGVNSSNSGAVTRTAAHTHIKGLGLDESGVAKRVEGGFVGQIEAREACGVIVDLIKAKKMSGRAILLAGGPSTGKTALALAISQELGPKVPFCPLVGSELYSVEVKKTETLMENFRRAIGLRIKETKEVYEGEVTELTPEDAENPLGGYGKTISHVIVGLKSAKGTKTLELDPTIYESIQREKVSIGDVIYIEANTGAVKRVGRSDAYATEFDLETEEYVPLPKGEVHKKKEIVQDVTLHDLDVANARPQGGQDVISMMGQLLKPKKTEITEKLRQEVNKVVAKYIDQGVAELIPGVLFIDEVNMLDIEIFTYLNKALESNIAPVVVLASNRGMTTVRGTEDVISPHGVPPDLIDRLLIVRTLPYDKDEIRTIIERRATVERLQVESSALDLLATMGTETSLRYALQLLAPCGILAQTSNRKEIVVNDVNEAKLLFLDAKRSTKILETSANYL | – | binds
3 | Rvb1(E150K) (natural protein, Saccharomyces cerevisiae, UniProt Q03940 1-463, looked up) MVAISEVKENPGVNSSNSGAVTRTAAHTHIKGLGLDESGVAKRVEGGFVGQIEAREACGVIVDLIKAKKMSGRAILLAGGPSTGKTALALAISQELGPKVPFCPLVGSELYSVEVKKTETLMENFRRAIGLRIKETKEVYEGEVTELTPKDAENPLGGYGKTISHVIVGLKSAKGTKTLRLDPTIYESIQREKVSIGDVIYIEANTGAVKRVGRSDAYATEFDLETEEYVPLPKGEVHKKKEIVQDVTLHDLDVANARPQGGQDVISMMGQLLKPKKTEITEKLRQEVNKVVAKYIDQGVAELIPGVLFIDEVNMLDIEIFTYLNKALESNIAPVVVLASNRGMTTVRGTEDVISPHGVPPDLIDRLLIVRTLPYDKDEIRTIIERRATVERLQVESSALDLLATMGTETSLRYALQLLAPCGILAQTSNRKEIVVNDVNEAKLLFLDAKRSTKILETSANYL | – | binds
4 | Rvb1(E146R) (natural protein, Saccharomyces cerevisiae, UniProt Q03940 1-463, looked up) MVAISEVKENPGVNSSNSGAVTRTAAHTHIKGLGLDESGVAKRVEGGFVGQIEAREACGVIVDLIKAKKMSGRAILLAGGPSTGKTALALAISQELGPKVPFCPLVGSELYSVEVKKTETLMENFRRAIGLRIKETKEVYEGEVTRLTPEDAENPLGGYGKTISHVIVGLKSAKGTKTLRLDPTIYESIQREKVSIGDVIYIEANTGAVKRVGRSDAYATEFDLETEEYVPLPKGEVHKKKEIVQDVTLHDLDVANARPQGGQDVISMMGQLLKPKKTEITEKLRQEVNKVVAKYIDQGVAELIPGVLFIDEVNMLDIEIFTYLNKALESNIAPVVVLASNRGMTTVRGTEDVISPHGVPPDLIDRLLIVRTLPYDKDEIRTIIERRATVERLQVESSALDLLATMGTETSLRYALQLLAPCGILAQTSNRKEIVVNDVNEAKLLFLDAKRSTKILETSANYL | – | binds
5 | Rvb1(K161E) (natural protein, Saccharomyces cerevisiae, UniProt Q03940 1-463, looked up) MVAISEVKENPGVNSSNSGAVTRTAAHTHIKGLGLDESGVAKRVEGGFVGQIEAREACGVIVDLIKAKKMSGRAILLAGGPSTGKTALALAISQELGPKVPFCPLVGSELYSVEVKKTETLMENFRRAIGLRIKETKEVYEGEVTELTPEDAENPLGGYGETISHVIVGLKSAKGTKTLRLDPTIYESIQREKVSIGDVIYIEANTGAVKRVGRSDAYATEFDLETEEYVPLPKGEVHKKKEIVQDVTLHDLDVANARPQGGQDVISMMGQLLKPKKTEITEKLRQEVNKVVAKYIDQGVAELIPGVLFIDEVNMLDIEIFTYLNKALESNIAPVVVLASNRGMTTVRGTEDVISPHGVPPDLIDRLLIVRTLPYDKDEIRTIIERRATVERLQVESSALDLLATMGTETSLRYALQLLAPCGILAQTSNRKEIVVNDVNEAKLLFLDAKRSTKILETSANYL | – | binds
